# Laboratory results from paper PMC12607152.
# Assays:
# [1] = molecular target: T1, CcpA (catabolite control protein A) (Staphylococcus aureus (XN108?)) (UniProt P99175); test: competition; conditions: not given in the material; EMSA as previously described (ref 22)
# T1 sequence: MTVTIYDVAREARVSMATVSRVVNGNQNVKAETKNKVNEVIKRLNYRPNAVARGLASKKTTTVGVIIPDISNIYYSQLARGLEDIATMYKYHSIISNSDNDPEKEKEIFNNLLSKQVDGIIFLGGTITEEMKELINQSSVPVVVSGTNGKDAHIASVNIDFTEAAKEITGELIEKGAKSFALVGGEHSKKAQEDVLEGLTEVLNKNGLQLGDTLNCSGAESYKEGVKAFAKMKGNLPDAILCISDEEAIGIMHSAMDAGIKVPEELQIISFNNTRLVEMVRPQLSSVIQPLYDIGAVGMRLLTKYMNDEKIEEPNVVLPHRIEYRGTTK
# [2] = molecular target: T1, CcpA (catabolite control protein A) (Staphylococcus aureus (XN108?)); test: EMSA; conditions: not given in the material; EMSA as previously described (ref 22)
Sequence,binding [1],binding [2]
CAGTCCTCAACTCTTTTAATGTTTTCATGTTGTCACCGCCTTTCGTAAACCTAATATAATACGAAATTTTCGTATTGTCAACATTAAATACGTTTTTTTCGTAAAAAACTTTACTATGATATGAAAATTTCGTATAATAAGAAAAAAGGAGGTAAGTAAT (double strand) [PcI unlabeled competitor],binds,
CAGTCCTCAACTCTTTTAATGTTTTCATGTTGTCACCGCCTTTCGTAAACCTAATATAATACGAAATTTTCGTATTGTCAACATTAAATACGTTTTTTTCGTAAAAAACTTTACTATGATATGAAAATTTCGTATAATAAGAAAAAAGGAGGTAAGTAAT (double strand) [PcI probe (160-bp region upstream of cI)],,binds
